Assay [1] deals with recombinant Her2, biotinylated (UniProt P04626). Kind of assay: SPR.
The target of assay [2] is Her2 on SK-BR-3 cells (human (endogenous in SK-BR-3)) (UniProt P04626). The experiment in a line: flow cytometry on cells.
The target of assay [3] is recombinant Her2, biotinylated (UniProt P04626). Kind of assay: plate binding titration of dye-labelled affibody.

Data on one substance can be found in paper PMC10691555.

In the case of “Her2-specific affibody ZHer2:2891 conjugated with AlexaFluor 488nm dye (designed binder)”, the Kd came out at 0.115 nM in assay [1], 7.12 nM in assay [2] and 11 nM in assay [3].
